For the test, the target named is T1, TLR9 (Mus musculus, UniProt Q9EQU3).
T1 construct: using the murine macrophage cell line RAW264.7; endogenous in cells; host or cells: RAW264.7
T1 sequence (Q9EQU3 26-1032): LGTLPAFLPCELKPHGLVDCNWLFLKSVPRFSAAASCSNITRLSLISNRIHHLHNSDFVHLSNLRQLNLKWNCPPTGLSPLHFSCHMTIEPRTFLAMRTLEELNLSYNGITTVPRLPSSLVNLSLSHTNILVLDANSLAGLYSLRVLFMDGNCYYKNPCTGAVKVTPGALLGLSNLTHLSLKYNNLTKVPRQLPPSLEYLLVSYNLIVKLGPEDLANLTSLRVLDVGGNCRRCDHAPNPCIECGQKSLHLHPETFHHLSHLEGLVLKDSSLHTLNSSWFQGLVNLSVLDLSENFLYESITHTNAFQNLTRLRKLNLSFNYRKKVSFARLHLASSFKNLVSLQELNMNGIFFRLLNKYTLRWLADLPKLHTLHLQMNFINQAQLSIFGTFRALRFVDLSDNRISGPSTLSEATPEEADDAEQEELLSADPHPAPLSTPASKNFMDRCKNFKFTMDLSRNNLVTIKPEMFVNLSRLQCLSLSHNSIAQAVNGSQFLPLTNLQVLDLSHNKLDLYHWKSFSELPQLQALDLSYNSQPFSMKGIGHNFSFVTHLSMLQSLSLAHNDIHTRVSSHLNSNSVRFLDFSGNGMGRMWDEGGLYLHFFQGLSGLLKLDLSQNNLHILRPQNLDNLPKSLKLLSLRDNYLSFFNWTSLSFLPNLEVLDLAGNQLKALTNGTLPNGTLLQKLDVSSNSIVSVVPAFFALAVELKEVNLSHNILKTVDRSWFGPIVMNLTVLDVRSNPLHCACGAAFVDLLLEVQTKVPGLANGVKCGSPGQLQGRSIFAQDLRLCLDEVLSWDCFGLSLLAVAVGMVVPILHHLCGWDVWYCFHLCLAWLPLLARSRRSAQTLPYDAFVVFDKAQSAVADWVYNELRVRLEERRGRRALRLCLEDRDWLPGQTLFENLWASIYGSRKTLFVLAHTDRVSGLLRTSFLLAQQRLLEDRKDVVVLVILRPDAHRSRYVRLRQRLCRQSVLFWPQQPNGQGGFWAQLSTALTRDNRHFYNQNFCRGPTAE
Briefly: CpG-induced MIP-2 production in RAW264.7 cells, ELISA. The class given is cell-based, murine. The note with it: peptide 5 or 20 μM 1 h before 1 μg/ml CpG, supernatant 24 h. How it is done: FIGS. 1A and B are bar charts showing the effect of peptides derived from A46 on CpG-induced MIP-2 production murine RAW264.7 cells. Cells were seeded in 96 well plates (1.5×10^5 cells/nil) at least 24 hours before treatment. A46 peptides were added to the cells at a concentration of 5 or 20 μM 1 hour before stimulating with 1 μg/ml CpG. Supernatants were collected 24 hours after stimulation and assayed for MIP2 by ELISA. No peptides were added into the control wells (black bars). (A) peptides A461-A467 (SEQ ID NO. 17 to 23). (B) peptides A468-A4614 (SEQ ID NO. 24 to 30) (excluding A4612 SEQ ID NO. 28). Data is representative of at least two experiments each performed in triplicate and is expressed as mean±s.d;
Cytokine and chemokine production from cells or mouse serum was measured by ELISA using Duoset kits from R&D systems, according to the manufacturer's instructions.
These peptides were initially screened for effects on TLR-induced gene induction in vitro using the murine macrophage cell line RAW264.7. Unmethylated CpG dinucleotides of bacterial DNA sequences are detected by TLR9, which leads to production of pro-inflammatory cytokines and chemokines, including TNFα via a MyD88-dependent pathway (Latz et al, 2004). […] The effect of the peptides on two TLR9-induced cytokines, namely TNFα and MIP-2, was measured by ELISA. […]
(In general: In an ELISA, binding on a coated surface is turned into a signal by an enzyme label.)

For the sequence KYSFKLILAEYRRRRRRRRR [Peptide A464], the “inhibition of CpG-induced MIP-2 secretion” value is given as “little or no effect”.

These data come from patent publication US8722052B2, “Vaccinia virus protein A46 peptide and use thereof” (priority 2008, dated 2014).
